The target in this assay is human EGFR, C-terminal eGFP-tagged, on CHO-K1 cells (human, UniProt P00533 25-1210). In words: cell-based or functional assay.

B1: GOMP001_bsAb_037 (bispecific antibody, human IgG1, kappa, L234A L235A)
heavy 1: QVQLVQSGAEVKKPGASVKVSCKASGYTFTSHWMHWVRKAPGQGLEWIGEFNPSNGRTNYNEEFKSKATMTVDTSTNTAYMELSSLRSEDTAVYYCASRDYDYDGRYFDYWGQGTLVTVSSASTKGPSVFPLAPSSKSTSGGTAALGCLVADYFPEPVTVSWNSGALTSGVHTFPAVLQSSGLYSLSSVVTVPSSSLGTQTYICNVNHKPSNTKVDEKVEPKSCDKTHTCPPCPAPEAAGGPSVFLFPPKPKDTLMISRTPEVTCVVVDVSHEDPEVKFNWYVDGVEVHNAKTKPREEQYNSTYRVVSVLTVLHQDWLNGKEYKCKVSNKALPAPIEKTISKAKGQPREPQVYTLPPSREEMTDNQVSLTCLVKGFYPSDIAVEWESNGQPENNYKTTPPVLMSDGSFFLASKLTVDKSRWQQGNVFSCSVMHEALHNHYTQKSLSLSPG
light 1: RIQMTQSPSSLSASVGDRVTITCSASSSVTYMYWYQDKPGKAPKLLIYDTSNLASGVPSRFSGSGSGTDYTFTISSLQPEDIATYYCQQWSSHIFTFGQGTKVEIKRTVAAPSVFIFPPSDKQLKSGTARVVCLLNNFYPREAKVQWKVDNALQSGNSQESVTEQDSKDSTYSLSSTLTLSKADYEKHKVYACEVTHQGLSSPVTKSFNRGEC
heavy 2: EVQLVESGGVLVKTGGSLRLSCVASGFSFKKAWMNWVRYAPGKGLEWVGRIKRNSDGGAADYAARVKDRFTLSRDDSKNTLYLQMNSLKTEDTAVYYCTTLDSSSWYVGYYYMDVWGRGTTVTVSSASTKGPSVFPLAPSSKSTSGGTAALGCLVKDYFPEPVTVSWNSGALTSGVHTFPAVLQSSGLYSLSSVVTVPSSSLGTQTYICNVNHKPSNTKVDKKVEPKSCDKTHTCPPCPAPEAAGGPSVFLFPPKPKDTLMISRTPEVTCVVVDVSHEDPEVKFNWYVDGVEVHNAKTKPREEQYNSTYRVVSVLTVLHQDWLNGKEYKCKVSNKALPAPIEKTISKAKGQPRRPRVYTLPPSREEMTKNQVSLVCLVKGFYPSDIAVEWESNGQPENNYKTTPPVLDSDGSFFLYSVLTVDKSRWQQGNVFSCSVMHEALHNHYTQKSLSLSPG
light 2: DIHMTQSPSSVSASLGDRVTFTCRASQNINNWLAWYQRKPGDAPKLLIYTASSLQSGVPSRFSGSGSGTDFTLTISSLQPDDFATYYCQQAHSLPITFGQGTRLGIKRTVAAPSVFIFPPSDEQLKSGTASVVCLLNNFYPREAKVQWKVDNALQSGNSQESVTEQDSKDSTYSLSSTLTLSKADYEKHKVYACEVTHQGLSSPVTKSFNRGEC
As for B1, the “EC50 CHO-K1 EGFR Low (nM); T cell activation bioassay, luciferase” value (shortened to “EC50 CHO-K1 EGFR Low (nM)”) turned out to be 0.183 nM and the “EC50 CHO-K1 EGFR Med (nM); T cell activation bioassay, luciferase” value (from here on “EC50 CHO-K1 EGFR Med (nM)”) was 0.028 nM.

B2: GOMP001_bsAb_040 (bispecific antibody, human IgG1, kappa, L234A L235A)
heavy 1: EVQLVESGGGLVKTGGSHRLSCVASGFSFKKAWMNWVRYAPGKGLEWVGRIKRNSDGGTTDYAARVKGRFILSRDDSKNTLYLQMNSLKTEDTAVYYCTTLDSSSWYVGYYYMDVWGRGTTVTVSSASTKGPSVFPLAPSSKSTSGGTAALGCLVKDYFPEPVTVSWNSGALTSGVHTFPAVLQSSGLYSLSSVVTVPSSSLGTQTYICNVNHKPSNTKVDKKVEPKSCDKTHTCPPCPAPEAAGGPSVFLFPPKPKDTLMISRTPEVTCVVVDVSHEDPEVKFNWYVDGVEVHNAKTKPREEQYNSTYRVVSVLTVLHQDWLNGKEYKCKVSNKALPAPIEKTISKAKGQPRRPRVYTLPPSREEMTKNQVSLVCLVKGFYPSDIAVEWESNGQPENNYKTTPPVLDSDGSFFLYSVLTVDKSRWQQGNVFSCSVMHEALHNHYTQKSLSLSPG
light 1: DIQMTQSPSSVSASVGDRVTITCRASQDINNWLAWYQRKPGDAPKILIYTASNLQSGVPSRFSGSGSGTDFTLTISSLQPEDFATYFCQQAHSLPITFGQGTRLEIKRTVAAPSVFIFPPSDEQLKSGTASVVCLLNNFYPREAKVQWKVDNALQSGNSQESVTEQDSKDSTYSLSSTLTLSKADYEKHKVYACEVTHQGLSSPVTKSFNRGEC
heavy 2: QVQLVQSGAEVKKPGASVKVSCKASGYTFTSHWMHWVRYAPGQGLEWIGEFNPSNGRTNYNEKFKSKATMTVDTSTNTAYMELSSLRSEDTAVYYCASRDYDYDGRYFDYWGRGTLVTVSSASTKGPSVFPLAPSSKSTSGGTAALGCLVKDYFPEPVTVSWNSGALTSGVHTFPAVLQSSGLYSLSSVVTVPSSSLGTQTYICNVNHKPSNTKVDKKVEPKSCDKTHTCPPCPAPEAAGGPSVFLFPPKPKDTLMISRTPEVTCVVVDVSHEDPEVKFNWYVDGVEVHNAKTKPREEQYNSTYRVVSVLTVLHQDWLNGKEYKCKVSNKALPAPIEKTISKAKGQPRRPRVYTLPPSREEMTKNQVSLVCLVKGFYPSDIAVEWESNGQPENNYKTTPPVLDSDGSFFLYSVLTVDKSRWQQGNVFSCSVMHEALHNHYTQKSLSLSPG
light 2: DIQMTQSPSSLSASVGDRVTITCSASSSVTYMYWYQRKPGDAPKLLIYDTSNLASGVPSRFSGSGSGTDYTFTISSLQPEDIATYYCQQWSSHIFTFGQGTKVEIKRTVAAPSVFIFPPSDEQLKSGTASVVCLLNNFYPREAKVQWKVDNALQSGNSQESVTEQDSKDSTYSLSSTLTLSKADYEKHKVYACEVTHQGLSSPVTKSFNRGEC
On to B2, for which the “EC50 CHO-K1 EGFR Low (nM)” value was found to be 0.0499 nM and the “EC50 CHO-K1 EGFR Med (nM)” value turned out to be 0.0038 nM.

B3: GOMP001_bsAb_039 (bispecific antibody, human IgG1, kappa, L234A L235A)
heavy 1: QVQLVQSGAEVKKPGASVKVSCKASGYTFTSHWMHWVRKAPGQGLEWIGEFNPSNGRTNYNEEFKSKATMTVDTSTNTAYMELSSLRSEDTAVYYCASRDYDYDGRYFDYWGQGTLVTVSSASTKGPSVFPLAPSSKSTSGGTAALGCLVADYFPEPVTVSWNSGALTSGVHTFPAVLQSSGLYSLSSVVTVPSSSLGTQTYICNVNHKPSNTKVDEKVEPKSCDKTHTCPPCPAPEAAGGPSVFLFPPKPKDTLMISRTPEVTCVVVDVSHEDPEVKFNWYVDGVEVHNAKTKPREEQYNSTYRVVSVLTVLHQDWLNGKEYKCKVSNKALPAPIEKTISKAKGQPREPQVYTLPPSREEMTDNQVSLTCLVKGFYPSDIAVEWESNGQPENNYKTTPPVLMSDGSFFLASKLTVDKSRWQQGNVFSCSVMHEALHNHYTQKSLSLSPG
light 1: RIQMTQSPSSLSASVGDRVTITCSASSSVTYMYWYQDKPGKAPKLLIYDTSNLASGVPSRFSGSGSGTDYTFTISSLQPEDIATYYCQQWSSHIFTFGQGTKVEIKRTVAAPSVFIFPPSDKQLKSGTARVVCLLNNFYPREAKVQWKVDNALQSGNSQESVTEQDSKDSTYSLSSTLTLSKADYEKHKVYACEVTHQGLSSPVTKSFNRGEC
heavy 2: EVQLVESGGGLVKTGGSHRLSCVASGFSFKKAWMNWVRYAPGKGLEWVGRIKRNSDGGTTDYAARVKGRFILSRDDSKNTLYLQMNSLKTEDTAVYYCTTLDSSSWYVGYYYMDVWGRGTTVTVSSASTKGPSVFPLAPSSKSTSGGTAALGCLVKDYFPEPVTVSWNSGALTSGVHTFPAVLQSSGLYSLSSVVTVPSSSLGTQTYICNVNHKPSNTKVDKKVEPKSCDKTHTCPPCPAPEAAGGPSVFLFPPKPKDTLMISRTPEVTCVVVDVSHEDPEVKFNWYVDGVEVHNAKTKPREEQYNSTYRVVSVLTVLHQDWLNGKEYKCKVSNKALPAPIEKTISKAKGQPRRPRVYTLPPSREEMTKNQVSLVCLVKGFYPSDIAVEWESNGQPENNYKTTPPVLDSDGSFFLYSVLTVDKSRWQQGNVFSCSVMHEALHNHYTQKSLSLSPG
light 2: DIQMTQSPSSVSASVGDRVTITCRASQDINNWLAWYQRKPGDAPKILIYTASNLQSGVPSRFSGSGSGTDFTLTISSLQPEDFATYFCQQAHSLPITFGQGTRLEIKRTVAAPSVFIFPPSDEQLKSGTASVVCLLNNFYPREAKVQWKVDNALQSGNSQESVTEQDSKDSTYSLSSTLTLSKADYEKHKVYACEVTHQGLSSPVTKSFNRGEC
Consider B3, for which the “EC50 CHO-K1 EGFR Low (nM)” value is 0.369 nM and the “EC50 CHO-K1 EGFR Med (nM)” value is 0.0257 nM.

B4: GOMP001_bsAb_038 (bispecific antibody, human IgG1, kappa, L234A L235A)
heavy 1: EVQLVESGGVLVKTGGSLRLSCVASGFSFKKAWMNWVRYAPGKGLEWVGRIKRNSDGGAADYAARVKDRFTLSRDDSKNTLYLQMNSLKTEDTAVYYCTTLDSSSWYVGYYYMDVWGRGTTVTVSSASTKGPSVFPLAPSSKSTSGGTAALGCLVKDYFPEPVTVSWNSGALTSGVHTFPAVLQSSGLYSLSSVVTVPSSSLGTQTYICNVNHKPSNTKVDKKVEPKSCDKTHTCPPCPAPEAAGGPSVFLFPPKPKDTLMISRTPEVTCVVVDVSHEDPEVKFNWYVDGVEVHNAKTKPREEQYNSTYRVVSVLTVLHQDWLNGKEYKCKVSNKALPAPIEKTISKAKGQPRRPRVYTLPPSREEMTKNQVSLVCLVKGFYPSDIAVEWESNGQPENNYKTTPPVLDSDGSFFLYSVLTVDKSRWQQGNVFSCSVMHEALHNHYTQKSLSLSPG
light 1: DIHMTQSPSSVSASLGDRVTFTCRASQNINNWLAWYQRKPGDAPKLLIYTASSLQSGVPSRFSGSGSGTDFTLTISSLQPDDFATYYCQQAHSLPITFGQGTRLGIKRTVAAPSVFIFPPSDEQLKSGTASVVCLLNNFYPREAKVQWKVDNALQSGNSQESVTEQDSKDSTYSLSSTLTLSKADYEKHKVYACEVTHQGLSSPVTKSFNRGEC
heavy 2: QVQLVQSGAEVKKPGASVKVSCKASGYTFTSHWMHWVRYAPGQGLEWIGEFNPSNGRTNYNEKFKSKATMTVDTSTNTAYMELSSLRSEDTAVYYCASRDYDYDGRYFDYWGRGTLVTVSSASTKGPSVFPLAPSSKSTSGGTAALGCLVKDYFPEPVTVSWNSGALTSGVHTFPAVLQSSGLYSLSSVVTVPSSSLGTQTYICNVNHKPSNTKVDKKVEPKSCDKTHTCPPCPAPEAAGGPSVFLFPPKPKDTLMISRTPEVTCVVVDVSHEDPEVKFNWYVDGVEVHNAKTKPREEQYNSTYRVVSVLTVLHQDWLNGKEYKCKVSNKALPAPIEKTISKAKGQPRRPRVYTLPPSREEMTKNQVSLVCLVKGFYPSDIAVEWESNGQPENNYKTTPPVLDSDGSFFLYSVLTVDKSRWQQGNVFSCSVMHEALHNHYTQKSLSLSPG
light 2: DIQMTQSPSSLSASVGDRVTITCSASSSVTYMYWYQRKPGDAPKLLIYDTSNLASGVPSRFSGSGSGTDYTFTISSLQPEDIATYYCQQWSSHIFTFGQGTKVEIKRTVAAPSVFIFPPSDEQLKSGTASVVCLLNNFYPREAKVQWKVDNALQSGNSQESVTEQDSKDSTYSLSSTLTLSKADYEKHKVYACEVTHQGLSSPVTKSFNRGEC
With B4, the “EC50 CHO-K1 EGFR Low (nM)” value was 0.0248 nM and the “EC50 CHO-K1 EGFR Med (nM)” value is 0.00489 nM.

These data come from patent US20230295310A1 (ABCELLERA BIOLOGICS, published 2023).
